# Measurements as given in US10677782B2, “Methods of determining interferon having direct inhibitory effects on tumors and uses thereof” (SUPERLAB FAR EAST LIMITED, priority 2013, dated 2020).
# B1: rSIFN-co: Recombinant super-compound interferon; amino acid sequence SEQ ID NO: 1 (same as interferon alfacon-1), encoded by SEQ ID NO: 2, novel tertiary structure (protein)
# chain: MCDLPQTHSLGNRRALILLAQMRRISPFSCLKDRHDFGFPQEEFDGNQFQKAQAISVLHEMIQQTFNLFSTKDSSAAWDESLLEKFYTELYQQLNDLEACVIQEVGVEETPLMNVDSILAVKKYFQRITLYLTEKKYSPCAWEVVRAEIMRSFSLSTNLQERLRRKE
# modifications: Amino acid sequence of recombinant interferon
# How the values were obtained:
# [1] = tested on: phosphorylation of STAT1 (Tyr701), STAT2 (Tyr690), STAT3 (Tyr705) in A549 cells; test: STAT phosphorylation by Western Blot; type: cell-based, human; settings: 10 μg/ml; 0, 5, 15, 30, 60, 120 and 240 minutes
# Text: (§1) After treatment, the cells were collected, cellular proteins were extracted and loaded onto SDS-PAGE […] for Western Blot analysis to observe the phosphorylation of STAT1 (Tyr701), STAT2 (Tyr690), and STAT3(Tyr705). GAPDH was used as a loading control.
# (§2) The primary antibodies used were: STAT1 (1:1000, Cat #: 9175S), Tyr701 phosphorylated-STAT1 (1:1000, Cat #: 9167S), STAT2 (1:500, Cat #4594), Tyr690 phosphorylated-STAT2 (1:1000, Cat #: 441S), STAT3 (1:1000, Cat #: 9132), Tyr705 phosphorylated-STAT3 (1:1000, Cat #: 9145S). Anti-mouse (Cat #: sc-2005) or rabbit (Cat #: sc-2004) or goat (Cat #: sc-2020) HRP-conjugated secondary antibodies (Santa Cruz Technology, Santa Cruz, Calif.) were used at concentrations of 1:2000. Blots were visualized by use of Luminescence/Fluorescence Imaging LAS4000 System (GE Healthcare Life Sciences, USA) with super signal west pico chemiluminescnet substrate kit (Thermo Scientific, USA).
# [2] = tested on: phosphorylation of STAT1 (Tyr701), STAT2 (Tyr690), STAT3 (Tyr705) in Hela cells; test: STAT phosphorylation by Western Blot; type: cell-based, human; settings: 10 μg/ml; 0, 5, 15, 30, 60, 120 and 240 minutes
# Text: as §1, §2
# [3] = tested on: LRP6 mRNA in H460 cells; test: qPCR of Wnt-related receptor LRP6; type: cell-based, human; settings: 10 μg/ml, 24 hr; vs Mock
# Text: (§3) Total mRNA was isolated using TRIZOL Reagent (Invitrogen, Carlsbad, Calif.) according to the manufacturer's instructions. Complementary DNA (cDNA) was synthesized using a RT-PCR Kit (Cat #: FSQ-101, TOYOBO, Japan) according to the manufacturer's instructions and then subjected to qPCR with a SYBR Green PCR kit (Cat #: QPK-201, TOYOBO, Japan). The primers of the four Wnt pathway target genes were as follows: Axin2 sense primer: 5′-[…]-3′ (SEQ ID NO:8) and antisense primer: 5′-[…]-3′ (SEQ ID NO: 9); CD24 sense primer: 5′-[…]-3′ (SEQ ID NO: 10) andantisense primer: 5′-[…]-3′ (SEQ ID NO: 11); Survivin sense primer: 5′-[…]-3′ (SEQ ID NO: 12) and antisense primer: 5′-[…]-3′ (SEQ ID NO: 13) and ID2 sense primer: 5′-[…]-3′ (SEQ ID NO: 14) and antisense primer: 5′-[…]-3′ (SEQ ID NO: 15).
# The amplification protocol consisted of incubations at 95° C. for 1 minute, 40 cycles (95° C. for 15 seconds, 60° C. for 15 seconds, 72° C. for 30 seconds). Incorporation of the SYBR Green dye into PCR products was monitored in real time with a Bio-Rad Detection System and subsequently analyzed using Bio-Rad CFX manager 2.1 software. The samples were pooled for each condition and run in duplicate. […]
# The regulation of LRP6/FZD6 by rSIFN-co was investigated. […] Results were recorded as relative mRNA level of either LRP6 or FZD6 relative to GAPDH.
# [4] = tested on: Axin2 mRNA in A549 cells; test: qPCR of Wnt pathway target genes in A549 cells; type: cell-based, human; settings: 10 μg/ml, 24 hr; Mock control set at 1
# Experimental: (§4) After 24 hr of treatment, cellular total mRNA was isolated using TRIZOL Reagent and cDNA was synthesized and further subjected to qPCR, using specific primers of four (4) Wnt signaling downstream genes, Axin2, CD24, Survivin and ID2. Experiments were conducted in triplicate and normalized with the Mock group.
# as §3
# (§5) The amplification protocol consisted of incubations at 95° C. for 1 minute, 40 cycles (95° C. for 15 seconds, 60° C. for 15 seconds, 72° C. for 30 seconds). Incorporation of the SYBR Green dye into PCR products was monitored in real time with a Bio-Rad Detection System and subsequently analyzed using Bio-Rad CFX manager 2.1 software. The samples were pooled for each condition and run in duplicate. Treated samples were compared to Mock using the 2^−ΔΔCt method and plotted as fold change. GAPDH was used as the normalization control.
# [5] = tested on: CD24 mRNA in A549 cells; test: qPCR of Wnt pathway target genes in A549 cells; type: cell-based, human; settings: 10 μg/ml, 24 hr; Mock control set at 1
# Experimental: as §4, §3, §5
# [6] = tested on: Survivin mRNA in A549 cells; test: qPCR of Wnt pathway target genes in A549 cells; type: cell-based, human; settings: 10 μg/ml, 24 hr; Mock control set at 1
# Experimental: as §4, §3, §5
# [7] = tested on: ID2 mRNA in A549 cells; test: qPCR of Wnt pathway target genes in A549 cells; type: cell-based, human; settings: 10 μg/ml, 24 hr; Mock control set at 1
# Experimental: as §4, §3, §5
# [8] = tested on: human lung cancer SPC-A4 xenografts; test: Human lung cancer SPC-A4 xenografts in nude mice (Example 4); type: in vivo; settings: for TV (mm^3, mean ± SD) (D0): day 0, start of treatment; for TV (mm^3, mean ± SD) (D21): day 21
# Experimental: Before commencement of this study, the xenografts were passaged twice in nude mice. Under sterile conditions, well-grown tumors were cut into 1.5 mm^3 fragments and one such fragment was injected by trocar needle into the right flank of each study animal. […] Individual tumor size (length and width) was measured twice per week with microcalipers. Tumor volume (V) was calculated using the formula: V=(length×width^2)/2. Individual relative tumor volume (RTV) was calculated using the formula: RTV=Vt/V0, where Vt is the tumor volume on the day of measurement and V0 is the tumor volume on the day of first treatment. Therapeutic effect of the test article or control article was expressed in terms of TIC (%), using the formula: TIC (%) (mean RTV of the treated group/mean RTV of the control group)×100%; and in terms of % Inhibition, using the formula: % Inhibition=100%−T/C %.
# The 1.5 mm^3 fragments were then used for s.c. implantation into the test animals.
# [9] = tested on: SW620 tumor cells; test: Cell viability over 1-6 days, MTT assay; type: cell-based, human; settings: 10 μg/ml
# Experimental: The cell survival rate was evaluated in a standard MTT assay (3-(4,5-dimethylthiazol-2-yl)-2,5-diphenyltetrazolium bromide assay, Sigma, St. Louis, Mo.). For the assay, about 20 μl MTT (at 4 mcg/ml) was added to each well. The cells were incubated at 37° C. for 4 hr. After that, the supernatant of each well was drawn off carefully and then an equal volume (150 microliter) of dimethyl sulfoxide (DMSO) was added to each well and mixed thoroughly on a shaker for 15 min. The absorbance from the plates was read at 595 nm with a Thermo Scientific Microplate Reader (Thermo Fisher Scientific Inc., Lowell, Mass.). The relative cell viability was calculated as follows: Cell viability=(Treated group(OD595) minus blank(OD595))/(Control group(OD595) minus blank(OD595))×100%.
# [10] = 0.05 mg/mouse i.t. every other day
# [11] = 0.10 mg/mouse i.t. every other day
# [12] = 0.15 mg/mouse i.t. every other day
molecule,measurement,setting,value
B1,"phosphorylation patterns for STAT1, STAT2 and STAT3",[1],"behaved similarly in their phosphorylation patterns for STAT1, STAT2 and STAT3"
same,"phosphorylation patterns for STAT1, STAT2 and STAT3",[2],"behaved similarly in their phosphorylation patterns for STAT1, STAT2 and STAT3"
same,relative expression of the LRP6 mRNA,[3],down-regulated to various extents
same,relative expression level of Axin2 mRNA,[4],about 0.4
same,relative expression level of CD24 mRNA,[5],about 0.4
same,relative expression level of Survivin mRNA,[6],about 0.4
same,relative expression level of ID2 mRNA,[7],about 0.4
same,"TV (mm^3, mean ± SD) (D0)",[8]; [10],170 ± 41 mm^3
same,"TV (mm^3, mean ± SD) (D21)",[8]; [10],2244 ± 1043 mm^3
same,"TV (mm^3, mean ± SD) (D0)",[8]; [11],168 ± 49 mm^3
same,"TV (mm^3, mean ± SD) (D21)",[8]; [11],2388 ± 1544 mm^3
same,"TV (mm^3, mean ± SD) (D0)",[8]; [12],169 ± 40 mm^3
same,"TV (mm^3, mean ± SD) (D21)",[8]; [12],2284 ± 653 mm^3
same,"cell viability, time dependent effect",[9],strongly decreased cell viability of SW620 cells in a time-dependent manner
